Assay [1] concerns the target T1, human IL4 (IL004, Millipore) (human, UniProt P05112 25-153).
T1 construct: Commercial recombinant antigen; also called Antigen IL4
T1 sequence (looked up): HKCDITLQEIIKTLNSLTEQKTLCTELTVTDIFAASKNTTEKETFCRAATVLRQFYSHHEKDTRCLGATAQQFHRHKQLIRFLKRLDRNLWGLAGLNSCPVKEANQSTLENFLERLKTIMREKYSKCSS
Kind of assay: SPR, Biacore 3000, antibody captured by anti-human Fc, IL4 as analyte; HEK293-FS expression, processed in vivo. How it is done: (§1) Binding of antigens to the antibody constructs was measured using surface plasmon resonance (SPR) with a BlAcore 3000 instrument (GE Healthcare) with HBS-EP buffer (GE Healthcare). As antigens, human IL4 (IL004, Millipore) and human IL13 (IL012, Millipore) were used. The antihuman Fc capture antibody (human antibody capture kit, GE Life Sciences) was immobilized via primary amine groups (11000 RU) on a research grade CM5 chip (GE Life Sciences) using standard procedures. […] The tested antibody constructs were […] and injected at 100 nM concentration for 240 sec with a dissociation time of 300 sec at a flow rate of 30 µL/min. For human IL4 and IL13, a dilution series of 0.1 nM to 3 nM and 0.8 nM to 25 nM, respectively were used. Chip surfaces were regenerated with 2 min injects of the regeneration buffer provided with the capture kit. Sensorgrams were double-referenced with a blank chip surface and HBS-EP buffer blanks. Data analysis was performed using the BIAevaluation software v4.1.
(§2) The binding of the different bispecific Tandem-IgG constructs expressed in HEK293-FS or ExpiCHO cells as well as in vivo processed Tandem-IgG from the co-transfection with Furin variants was measured via surface plasmon resonance (SPR). The binding to the two human antigens IL4 and IL13 were compared to the binding characteristics of the individual monoclonal antibodies. […] In contrast, specific binding to IL13 was only detectable for in vivo processed Tandem-IgGs as well as the Tandem-lgG control comprising two LCs. […] Thus, processing of the linker sequence connecting the VLb (VL against IL13) at the inner position of the Tandem-lgG with the CK domain of the IL4 binding Fab at the outer position is required for a functional IL13 binding site. In vivo processing can thereby be mediated via endogenously expressed proteases or via co-transfected Furin variants.
On the technique in general: SPR reads the build-up and loss of mass on a sensor chip optically.

The target of assay [2] is T1, human IL4 (IL004, Millipore). Kind of assay: SPR, Biacore 3000, antibody captured by anti-human Fc, IL4 as analyte; second block of the table (presumably ExpiCHO expression), processed in vivo. How it is done:
as §1, §2

Assay [3] shares this target. Kind of assay: SPR, Biacore 3000, antibody captured by anti-human Fc, IL4 as analyte; HEK293-FS, co-expressed with hFurin-KDEL (SEQ ID NO 38). How it is done: as §1, §2
Assay [4] has the same target. Kind of assay: SPR, Biacore 3000, antibody captured by anti-human Fc, IL4 as analyte; HEK293-FS, co-expressed with hFurin (SEQ ID NO 37). How it is done:
as §1, §2

For assay [5] the target is unchanged. Kind of assay: SPR, Biacore 3000, antibody captured by anti-human Fc, IL4 as analyte; HEK293-FS expression. How it is done:
as §1, §2

B1: sLC-Tandem-(anti-IL4xanti-IL13)-PCL2-huIgG1 (bispecific antibody)
light: DIQMTQSPASLSVSVGDTITLTCHASQNIDVWLSWFQQKPGNIPKLLIYKASNLHTGVPSRFSGSGSGTGFTLTISSLQPEDIATYYCQQAHSYPFTFGGGTKLEIKRTVAAPSVFIFPPSDEQLKSGTASVVCLLNNFYPREAKVQWKVDNALQSGNSQESVTEQDSKDSTYSLSSTLTLSKADYEKHKVYACEVTHQGLSSPVTKSFNRGECHRRRKR
chain: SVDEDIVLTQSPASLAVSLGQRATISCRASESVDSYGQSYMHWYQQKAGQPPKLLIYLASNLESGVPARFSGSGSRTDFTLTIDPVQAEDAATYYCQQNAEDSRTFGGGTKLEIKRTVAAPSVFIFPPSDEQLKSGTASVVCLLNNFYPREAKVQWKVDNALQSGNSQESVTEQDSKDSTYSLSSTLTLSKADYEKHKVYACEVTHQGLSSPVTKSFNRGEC
heavy: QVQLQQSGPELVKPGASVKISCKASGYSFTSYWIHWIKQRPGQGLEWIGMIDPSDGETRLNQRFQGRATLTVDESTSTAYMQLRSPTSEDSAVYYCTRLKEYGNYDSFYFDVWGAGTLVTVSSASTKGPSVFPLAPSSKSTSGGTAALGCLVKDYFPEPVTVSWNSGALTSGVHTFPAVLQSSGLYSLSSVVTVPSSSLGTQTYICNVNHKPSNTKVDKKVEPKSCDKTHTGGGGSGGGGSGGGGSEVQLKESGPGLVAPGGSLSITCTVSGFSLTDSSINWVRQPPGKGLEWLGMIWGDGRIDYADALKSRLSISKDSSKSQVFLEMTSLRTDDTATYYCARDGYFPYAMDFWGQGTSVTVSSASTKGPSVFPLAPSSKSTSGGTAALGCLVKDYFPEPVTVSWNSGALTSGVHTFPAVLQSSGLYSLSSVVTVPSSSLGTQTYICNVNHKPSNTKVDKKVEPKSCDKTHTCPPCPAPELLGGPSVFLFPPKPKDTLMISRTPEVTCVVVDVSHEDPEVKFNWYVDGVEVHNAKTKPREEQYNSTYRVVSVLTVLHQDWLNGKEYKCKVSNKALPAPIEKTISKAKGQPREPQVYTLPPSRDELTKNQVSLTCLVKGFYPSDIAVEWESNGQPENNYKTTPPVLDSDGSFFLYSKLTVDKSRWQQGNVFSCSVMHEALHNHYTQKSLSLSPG
notes: also called sLC-PCL2-Tandem-IgG; sLC Tandem-IgG-PCL2
In general, Kd refers to the equilibrium constant for the complex coming apart. A lower Kd goes with tighter binding. As usually defined, the koff is a measure of how fast the partners let go of each other. The low end stands for slow dissociation, the high end for fast dissociation. What is called kon is a measure of how fast the partners come together. High values mean fast association, low ones slow association. In assay [1], B1 had a Kd of 1.05 pM, a koff of 0.000189 s⁻¹ and an association rate constant (kon) of 1.79e+08 M⁻¹ s⁻¹. In assay [2], this molecule came in with a Kd of 1.33 pM, a koff of 0.000249 s⁻¹ and a kon of 1.87e+08 M⁻¹ s⁻¹.

B2: sLC-Tandem-(anti-IL4xanti-IL13)-His8-PCL1-huIgG1 (bispecific antibody)
light: DIQMTQSPASLSVSVGDTITLTCHASQNIDVWLSWFQQKPGNIPKLLIYKASNLHTGVPSRFSGSGSGTGFTLTISSLQPEDIATYYCQQAHSYPFTFGGGTKLEIKRTVAAPSVFIFPPSDEQLKSGTASVVCLLNNFYPREAKVQWKVDNALQSGNSQESVTEQDSKDSTYSLSSTLTLSKADYEKHKVYACEVTHQGLSSPVTKSFNRGECRRKR
chain: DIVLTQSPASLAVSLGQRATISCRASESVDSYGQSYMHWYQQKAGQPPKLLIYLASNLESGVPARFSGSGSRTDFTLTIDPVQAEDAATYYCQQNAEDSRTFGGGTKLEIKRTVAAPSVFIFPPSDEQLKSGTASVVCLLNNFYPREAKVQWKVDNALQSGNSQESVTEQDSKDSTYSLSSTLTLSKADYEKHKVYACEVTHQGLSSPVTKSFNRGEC
heavy: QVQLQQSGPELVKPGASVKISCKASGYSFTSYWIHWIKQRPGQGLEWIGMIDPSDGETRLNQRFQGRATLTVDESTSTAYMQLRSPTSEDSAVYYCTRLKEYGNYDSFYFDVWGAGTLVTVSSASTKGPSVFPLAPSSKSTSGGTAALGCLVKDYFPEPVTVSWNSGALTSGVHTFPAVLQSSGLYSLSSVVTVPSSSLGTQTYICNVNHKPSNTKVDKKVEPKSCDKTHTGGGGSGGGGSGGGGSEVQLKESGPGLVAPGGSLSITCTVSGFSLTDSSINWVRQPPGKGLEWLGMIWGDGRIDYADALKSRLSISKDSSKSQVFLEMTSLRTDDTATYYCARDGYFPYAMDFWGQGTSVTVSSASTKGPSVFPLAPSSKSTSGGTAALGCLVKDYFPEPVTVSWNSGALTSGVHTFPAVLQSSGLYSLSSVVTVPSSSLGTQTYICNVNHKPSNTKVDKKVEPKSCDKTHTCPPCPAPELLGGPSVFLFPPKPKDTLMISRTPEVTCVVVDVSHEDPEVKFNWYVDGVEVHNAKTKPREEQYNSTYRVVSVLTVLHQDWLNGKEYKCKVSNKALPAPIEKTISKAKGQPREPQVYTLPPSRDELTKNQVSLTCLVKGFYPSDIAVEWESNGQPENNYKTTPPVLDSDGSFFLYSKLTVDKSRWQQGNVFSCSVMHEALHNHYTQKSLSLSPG
notes: In both the single light chain was processed in vivo; also called 17, 13 with 37; 17, 13 with 38
Turning to B2, in assay [3], binding was characterised by a dissociation constant (Kd) of 1.86 pM, the koff amounted to 0.000299 s⁻¹ and the kon amounted to 1.61e+08 M⁻¹ s⁻¹. In assay [4], this molecule came in with a dissociation constant Kd of 1.53 pM, a koff of 0.000211 s⁻¹ and a kon of 1.38e+08 M⁻¹ s⁻¹.

B3: Tandem-(anti-IL4xanti-IL13)-huIgG1 (bispecific antibody)
light 1: DIQMTQSPASLSVSVGDTITLTCHASQNIDVWLSWFQQKPGNIPKLLIYKASNLHTGVPSRFSGSGSGTGFTLTISSLQPEDIATYYCQQAHSYPFTFGGGTKLEIKRTVAAPSVFIFPPSDEQLKSGTASVVCLLNNFYPREAKVQWKVDNALQSGNSQESVTEQDSKDSTYSLSSTLTLSKADYEKHKVYACEVTHQGLSSPVTKSFNRGEC
light 2: not shown
heavy: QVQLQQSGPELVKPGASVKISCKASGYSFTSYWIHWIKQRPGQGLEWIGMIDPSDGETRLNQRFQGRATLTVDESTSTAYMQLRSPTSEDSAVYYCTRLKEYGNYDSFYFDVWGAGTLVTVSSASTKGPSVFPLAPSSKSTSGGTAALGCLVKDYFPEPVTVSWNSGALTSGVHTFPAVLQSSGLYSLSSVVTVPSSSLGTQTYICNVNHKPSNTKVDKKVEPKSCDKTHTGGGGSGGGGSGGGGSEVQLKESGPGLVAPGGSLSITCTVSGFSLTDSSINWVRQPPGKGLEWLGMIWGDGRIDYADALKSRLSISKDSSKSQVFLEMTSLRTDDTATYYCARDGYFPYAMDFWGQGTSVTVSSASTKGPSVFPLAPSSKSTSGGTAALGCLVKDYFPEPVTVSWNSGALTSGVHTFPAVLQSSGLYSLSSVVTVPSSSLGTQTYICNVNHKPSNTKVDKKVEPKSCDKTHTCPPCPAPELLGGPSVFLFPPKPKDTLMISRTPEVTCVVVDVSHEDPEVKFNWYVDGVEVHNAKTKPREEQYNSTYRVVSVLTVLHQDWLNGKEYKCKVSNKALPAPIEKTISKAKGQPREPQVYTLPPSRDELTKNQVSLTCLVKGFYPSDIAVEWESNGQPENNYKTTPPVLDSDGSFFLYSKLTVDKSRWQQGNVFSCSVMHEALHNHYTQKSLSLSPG
notes: Control with the two light chains expressed as separate chains; also called Tandem-IgG control; control Tandem-IgG
In assay [5], B3 gave an equilibrium dissociation constant (Kd) of 2.32 pM, a koff of 0.000149 s⁻¹ and a kon of 6.39e+07 M⁻¹ s⁻¹.

These data come from patent US20230279151A1 (Sanofi, published 2023).
